Results on 6 molecules are retold here after patent US20200324001A1 (NATIONAL UNIVERSITY CORPORATION OKAYAMA UNIVERSITY, published 2020).

The target of assay [1] is T1, mesothelin (MSLN) expressed on human cancer cell lines (human, UniProt Q13421 296-598).
T1 construct: whole, on cells; also called MSLN expressed in cancer cells
The assay can be described thus: flow cytometry on MKN74 cells; grade of MFI ratio to control (+ = 4.9-1.5). As to the method:
(§1) A total of 28 cell lines were used for FCM analysis. The “MSLN exp ref” column indicates positive MSLN expression shown in previous studies. The “MSLN exp FCM” column indicates the ratio of the mean fluorescence intensity […] of the control; a ratio of 5 or more was indicated as “++,” a ratio of 4.9-1.5 was indicated as “+,” and a ratio of 1.4 or less is indicated as “−.”
(§2) The human cancer cell lines (Table 1) were treated with Cell Dissociation Buffer, enzyme-free, PBS (Gibco/Life Technologies, CA, USA) and harvested as single-cell suspensions. 1×10⁶ cells were washed once with cold PBS containing 2% FBS and 1 mM EDTA, and a full-length anti-human MSLN antibody, each anti-human MSLN cp3-scFv clone, or each His-tag scFv clone was used as a primary antibody. For the full-length anti-human MSLN antibody, an anti-KLH antibody (IgG2b isotype control) was used as a negative control, and an Alexa Fluor 488-labeled goat anti-mouse IgG antibody was used as a secondary antibody. […] The mean value of the fluorescence intensity (excluding the dead cell population) was obtained using BD FACSDiva software and calculated using Microsoft Excel.
(In general: A flow cytometer gives signals particle by particle.)

Assay [2] has as its target T1, mesothelin (MSLN) expressed on human …. As to the kind of experiment: flow cytometry on SK-OV-3 cells; grade of MFI ratio to control (+ = 4.9-1.5). As to the method: as §1, §2
Assay [3] has the same target. As to the kind of experiment: flow cytometry on 22Rv1 cells; grade of MFI ratio to control (+ = 4.9-1.5). As to the method:
as §1, §2

Assay [4] has the same target. As to the kind of experiment: flow cytometry on BxPC-3 cells; grade of MFI ratio to control (+ = 4.9-1.5). The protocol: as §1, §2
The target is the same in assay [5]. As to the kind of experiment: flow cytometry on NCI-N87 cells; grade of MFI ratio to control (++ = 5 or more). The protocol:
as §1, §2

Assay [6] deals with T2, human recombinant mesothelin (r-MSLN) (human, UniProt Q13421 296-598, limits assumed).
T2 construct: also called recombinant MSLN; antigen r-MSLN
The assay can be described thus: BLI (BLItz, AR2G biosensor), unlabeled scFv against r-MSLN.

Assay [7] concerns the target T1, mesothelin (MSLN) expressed on human …. The assay can be described thus: flow cytometry on Hela cells; grade of MFI ratio to control (+ = 4.9-1.5). As to the method:
as §1, §2

Assay [8] shares this target. As to the kind of experiment: flow cytometry on MKN45 cells; grade of MFI ratio to control (+ = 4.9-1.5). The protocol: as §1, §2
The target is the same in assay [9]. The assay can be described thus: flow cytometry on SiHa cells; grade of MFI ratio to control (++ = 5 or more). The protocol: as §1, §2
Assay [10] has the same target. As to the kind of experiment: flow cytometry on NCI-H226 cells; grade of MFI ratio to control (++ = 5 or more). The protocol:
as §1, §2

The target is the same in assay [11]. As to the kind of experiment: flow cytometry on CFPAC-1 cells; grade of MFI ratio to control (+ = 4.9-1.5). The protocol: as §1, §2
Assay [12] shares this target. As to the kind of experiment: flow cytometry on HEC-1-A cells; grade of MFI ratio to control (+ = 4.9-1.5). As to the method:
as §1, §2

Assay [13] shares this target. The assay can be described thus: flow cytometry on NCI-H596 cells; grade of MFI ratio to control (+ = 4.9-1.5). As to the method:
as §1, §2

Assay [14] has the same target. As to the kind of experiment: flow cytometry on OVCAR-3 cells; grade of MFI ratio to control (++ = 5 or more). The protocol: as §1, §2
Assay [15] concerns the target T2, human recombinant mesothelin (r-MSLN). As to the kind of experiment: BLI (BLItz, AR2G biosensor), scFv after 89Zr labeling against r-MSLN. The protocol: DFO modification to each His-tag scFv was performed by incubation in bicarbonate buffer at a pH of 9.0 at 37° C. for 1 hour so that the ratio of dissolved chelating agent deferoxamine (p-SCN-Bn-DFO) to His-tag scFv was 3:1. ⁸⁹Zr was produced with a cyclotron (HM-12 cyclotron, Sumitomo Heavy Industries Ltd., Tokyo, Japan), and ⁸⁹Zr-oxalate was obtained. ⁸⁹Zr-oxalate, Na₂CO₃ (2M), and HEPES (0.5 M) were mixed so that the ratio of ⁸⁹Zr-oxalate to Na₂CO₃ (2M) to HEPES (0.5 M) was 2:1:10 and adjusted to a pH of 7.0, and the mixture was mixed with each DFO-modified His-tag scFv clone in which the solvent was replaced with gentisic acid physiological saline (5 mg/mL), followed by incubation at 37° C. for 30 minutes, thereby obtaining ⁸⁹Zr-DFO-scFvs. Unbound ⁸⁹Zr was removed by ultrafiltration using an Amicon Ultra 10K centrifugal filter. The radiochemical purity was determined by thin-layer chromatography-autoradiography (TLC-ARG) and HPLC (LC-20, Shimadzu Co., Kyoto, Japan). […] The in vitro stability of the radiolabeled scFvs after incubation in 50% human plasma/PBS at 37° C. for 6 hours was also analyzed. […] Immediately after mixing and after 6-hour incubation, a portion of the mixture of the radiolabeled scFv and the plasma was measured at 230 nm by HPLC, and the radioactivity was measured with a GABI star (Raytest, Straubenhardt, Germany). […]

Assay [16] has the same target. As to the kind of experiment: BLI (BLItz, AR2G biosensor), scFv after DFO modification against r-MSLN.

T2 sequence (Q13421 other isoform, or with tags, fused parts or gaps limits assumed): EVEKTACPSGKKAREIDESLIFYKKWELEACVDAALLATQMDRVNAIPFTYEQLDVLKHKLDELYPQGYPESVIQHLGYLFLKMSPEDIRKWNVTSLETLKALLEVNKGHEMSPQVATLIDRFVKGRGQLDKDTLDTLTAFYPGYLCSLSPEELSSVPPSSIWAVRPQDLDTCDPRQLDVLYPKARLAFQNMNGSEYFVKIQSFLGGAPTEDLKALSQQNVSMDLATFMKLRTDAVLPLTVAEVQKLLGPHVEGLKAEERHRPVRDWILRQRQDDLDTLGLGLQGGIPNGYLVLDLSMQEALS
T1 sequence (Q13421 other isoform, or with tags, fused parts or gaps limits assumed): as above

B1: anti-human MSLN His-tag scFv clone H1a050 (scFv)
scFv: SYELTQPPSVSVSPGQTARITCSGNALPKQYAYWYQQKPGQAPVLMIYKDSERPSGIPERFSGSSSGTTVTLTISGVQAEDEADYYCQSADSSHTYKVFGGGTKLTVLGGGGSGGGGSGGGGSGGGGSEVQLVQSGGGLVQPDRSLRLSCAASGFTFDDYAMHWVRQAPGKGLEWVSGISWNSGSIGYADSVKGRFTISRDNAKNSLYLQMNSLRAEDTALYYCAKDLGSYYGSGSGMDVWGQGTTVTVSSGG
notes: Unlabeled His-tag scFv expressed in CHO cells; also called His-tag scFv H1a050; His-Tag-scFv H1a050
In general, Kd refers to a measure of binding affinity in units of concentration. Regarding B1, the “ratio of MFI of scFv clone H1a050 to MFI of control (flow cytometry)” value (from here on “ratio of MFI of scFv clone H1a050”) was 1.5 to 4.9 ratio in assay [1]; 1.5 to 4.9 ratio in assay [2]; 1.5 to 4.9 ratio in [3]; 1.5 to 4.9 ratio in assay [4]; at least 5 ratio in assay [5]; 1.5 to 4.9 ratio in assay [7]. The “ratio of MFI of scFv clone H1a050” value in [8] is 1.5 to 4.9 ratio; in assay [9], at least 5 ratio; in assay [10] it was at least 5 ratio; in assay [11] it was 1.5 to 4.9 ratio; in assay [12], 1.5 to 4.9 ratio; in assay [13] it was 1.5 to 4.9 ratio. In [14], the “ratio of MFI of scFv clone H1a050” value was at least 5 ratio. Besides, in assay [6], the Kd was 4.68 nM.

B2: 89Zr-DFO-scFv H1a050 (scFv)
scFv: B1 scFv
modifications: deferoxamine (p-SCN-Bn-DFO) conjugated and loaded with 89Zr; sites not stated
notes: Same polypeptide as H1a050 His-tag scFv, DFO-modified and 89Zr-labeled; also called H1a050 after 89Zr labeling; 89Zr-labeled DFO-His-tag-scFv H1a050
For B2, in assay [15], the Kd came to 46.2 nM.

B3: DFO-modified His-tag scFv H1a050 (scFv)
scFv: B1 scFv
modifications: deferoxamine (p-SCN-Bn-DFO) conjugated, chelator to scFv ratio 3:1 in the reaction; sites not stated
notes: Same polypeptide as H1a050 His-tag scFv, carrying the DFO chelator; also called H1a050 after DFO modification; DFO-His-tag-scFv H1a050
Regarding B3, in assay [16], the Kd came out at 3.38 nM.

B4: anti-human MSLN His-tag scFv clone H2a064 (scFv)
scFv: SYELTQPPSVSVSPGQTARITCSGDALPKHYASWYQQKPGQAPVLLIYKDTERPSGIPERFSGSSSGTTVTLTISGVQAEDEADYYCQSADSSVTVVFGGGTKLTVLGGGGSGGGGSGGGGSGGGGSQVQLVQSGGGLVQPGRSLRLSCAASGFTFDDYAMHWVRQAPGKGLEWVSGISWNSGSIGYADSVKGRFTISRDNAKNSLYLQMNSLRAEDTALYYCAKDIGSSGWYGAFDIWGQGTTVTVSSGG
notes: Unlabeled His-tag scFv expressed in CHO cells; also called His-tag scFv H2a064; His-Tag-scFv H2a064
Turning to B4, in [6], the Kd was found to be 59.6 nM.

B5: DFO-modified His-tag scFv H2a064 (scFv)
scFv: B4 scFv
modifications: deferoxamine (p-SCN-Bn-DFO) conjugated, chelator to scFv ratio 3:1 in the reaction; sites not stated
notes: Same polypeptide as H2a064 His-tag scFv, carrying the DFO chelator; also called H2a064 after DFO modification; DFO-His-tag-scFv H2a064
Take B5: the Kd in assay [16] worked out at 114 nM.

B6: 89Zr-DFO-scFv H2a064 (scFv)
scFv: B4 scFv
modifications: deferoxamine (p-SCN-Bn-DFO) conjugated and loaded with 89Zr; sites not stated
notes: Same polypeptide as H2a064 His-tag scFv, DFO-modified and 89Zr-labeled; also called H2a064 after 89Zr labeling; 89Zr-labeled DFO-His-tag-scFv H2a064
In the case of B6, the Kd in assay [15] stood at 78.2 nM.
